Results on 7 substances are retold here after paper PMC8967028.

In this experiment the target is SARS-CoV-1 spike (S) receptor binding domain (SARS-CoV-1). The experiment in a line: SPR.

VHH-72-Fc T99V (Fc fusion) gave a koff of 0.00012 s⁻¹. VHH-72-Fc L97W (Fc fusion): the koff is 0.00018 s⁻¹.

Substance VHH-72-Fc S56M,T99V (Fc fusion) had a koff of 0.00016 s⁻¹. For the substance VHH-72-Fc S56M (Fc fusion), the koff amounted to 0.00025 s⁻¹. The substance VHH-72-Fc S56M,L97W (Fc fusion) displayed a koff of 0.0002 s⁻¹. The value for VHH-72-Fc S56M,L97W,T99V (Fc fusion) was 0.00013 s⁻¹; that for VHH-72-Fc L97W,T99V (Fc fusion) was 8e-05 s⁻¹.

For orientation: koff means the rate constant with which the complex falls apart. A higher koff goes with fast dissociation.
